Test [1] addresses T1, Cynomolgus monkey DLL3 antigen protein (Kactus Biosystems, Cat. No. CM103) (Cynomolgus monkey, UniProt Q9NYJ7 27-490 (human entry)).
T1 construct: also called cyno DLL3
T1 chain: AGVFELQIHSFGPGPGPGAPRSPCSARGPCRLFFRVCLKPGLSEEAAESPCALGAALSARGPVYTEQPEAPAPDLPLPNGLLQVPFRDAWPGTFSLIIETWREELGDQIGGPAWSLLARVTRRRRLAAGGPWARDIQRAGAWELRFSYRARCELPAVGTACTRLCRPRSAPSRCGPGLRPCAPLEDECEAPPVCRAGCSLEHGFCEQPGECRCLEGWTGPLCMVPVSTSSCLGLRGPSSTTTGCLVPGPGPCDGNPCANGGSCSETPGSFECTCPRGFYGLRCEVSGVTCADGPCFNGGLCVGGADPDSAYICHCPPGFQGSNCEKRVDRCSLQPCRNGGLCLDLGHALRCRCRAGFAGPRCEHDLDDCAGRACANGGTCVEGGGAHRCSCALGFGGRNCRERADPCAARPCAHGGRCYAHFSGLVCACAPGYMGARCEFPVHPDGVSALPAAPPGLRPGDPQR
The test is described as follows: affinity assay with Cynomolgus monkey DLL3 antigen protein (kinetics; method not restated, Biacore as in Example 18 implied). (In general: In SPR one partner is held on a chip, and binding of the other changes the refractive index at the surface.)

The target of test [2] is T2, human DLL3 on SHP-77 cells (human, UniProt Q9NYJ7 27-618).
T2 construct: also called DLL3-expressing cells (SHP-77)
T2 sequence: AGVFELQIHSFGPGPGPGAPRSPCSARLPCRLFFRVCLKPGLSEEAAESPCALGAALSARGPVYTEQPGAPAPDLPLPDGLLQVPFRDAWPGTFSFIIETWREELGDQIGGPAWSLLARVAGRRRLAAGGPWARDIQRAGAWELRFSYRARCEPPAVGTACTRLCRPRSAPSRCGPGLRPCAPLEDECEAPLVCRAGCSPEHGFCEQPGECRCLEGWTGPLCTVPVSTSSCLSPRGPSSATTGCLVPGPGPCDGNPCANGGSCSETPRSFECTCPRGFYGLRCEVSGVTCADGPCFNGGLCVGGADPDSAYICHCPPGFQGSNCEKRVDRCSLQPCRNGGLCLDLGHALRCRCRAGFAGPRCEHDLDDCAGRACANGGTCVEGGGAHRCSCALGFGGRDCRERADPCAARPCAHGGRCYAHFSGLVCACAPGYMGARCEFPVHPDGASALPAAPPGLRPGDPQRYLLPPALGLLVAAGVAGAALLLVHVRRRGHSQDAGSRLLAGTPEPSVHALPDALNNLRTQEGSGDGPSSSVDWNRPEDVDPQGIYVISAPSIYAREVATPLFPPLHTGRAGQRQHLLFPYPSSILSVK
The experiment in a line: flow cytometry, SHP-77 cells. In a few lines:
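Trypsinised SHP-77 cells in 1% BSA/PBS were incubated with antibody (100 nM top, 10-fold steps, 7 concentrations) for 1 h at 4° C. Bound antibody was detected with goat anti-human IgG Fc-PE for 0.5 h at 4° C and read as PE mean fluorescence intensity. EC50 and Top MFI were derived from the curves.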
On the technique in general: Flow cytometry measures light scatter and fluorescence of single cells or particles in a stream.

Test [3] concerns the target T3, human DLL4 (Sino Biological, Cat. No. 10171-H08H) (human, UniProt Q9NR61 27-529).
T3 construct: also called family protein DLL4
The test is described as follows: ELISA, plate coated with human DLL4 at 1 ug/mL, OD 450nm. As for the experimental part: The antigenic proteins human DLL1 (SinoBiological, cat. No. 11635-H08H) or human DLL4 (SinoBiological, cat. No. 10171-H08H) were dissolved in 1×PBS at a concentration of 1 μg/mL. […] The antigen was washed three times with PBST, 300 μL/well. The antigen was blocked with 1% BSA (in PBST), 200 µL/well, and incubated at 37° C. for 1.5 hours.
Antibodies to be tested were diluted with 1% BSA (in PBS) at a starting concentration of 100 nM, downwards by a 10-fold gradient for 7 concentrations. The plates were washed three times with PBST, 300 μL/well. The diluted antibody was added to an ELISA plate at 100 μL/well and incubated at room temperature for 2 hours. The antibodies were washed three times with PBST, 300 μL/well. The secondary antibodies (goat anti-human IgG Fc for DLL4 (HRP), 1:20000 dilution; HRP goat anti-mouse IgG (H+L) for DLL1, 1:10000 dilution) were diluted with 1% BSA in PBST. The diluted secondary antibodies were added to the ELISA plate at 100 μL/well and incubated at room temperature for 1 hour. The plates were washed 6 times with PBST, 300 μL/well. The developing solution (TMA and TMB 1:1 mixed) was prepared. The developing solution was added to the plate, 100 μL/well, and incubated in the dark for 5 min. 50 μL of ELISA stop solution was added to the plate and shaken well.
Background: ELISA stands for enzyme-linked immunosorbent assay.

T3 sequence (Q9NR61 27-529 limits assumed): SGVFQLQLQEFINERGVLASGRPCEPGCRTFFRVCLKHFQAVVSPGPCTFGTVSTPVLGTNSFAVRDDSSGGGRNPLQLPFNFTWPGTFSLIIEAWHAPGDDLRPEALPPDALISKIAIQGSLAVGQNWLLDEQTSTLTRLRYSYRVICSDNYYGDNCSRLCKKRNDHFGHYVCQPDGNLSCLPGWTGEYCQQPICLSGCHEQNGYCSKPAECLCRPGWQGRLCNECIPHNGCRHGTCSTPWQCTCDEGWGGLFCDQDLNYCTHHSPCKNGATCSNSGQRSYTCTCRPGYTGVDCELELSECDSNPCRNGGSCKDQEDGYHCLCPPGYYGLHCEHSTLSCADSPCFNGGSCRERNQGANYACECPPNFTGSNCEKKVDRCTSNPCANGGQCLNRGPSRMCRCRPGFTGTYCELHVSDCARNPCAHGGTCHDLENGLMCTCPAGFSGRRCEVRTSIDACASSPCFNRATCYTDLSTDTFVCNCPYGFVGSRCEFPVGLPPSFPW

B1: H2-39E2D11 mouse hybridoma-derived humanized anti-DLL3 antibody (antibody, V domains shown)
VH: QVQLVQSGAEVKKPGASVKVSCKASGYTFISYWITWVRQAPGQGLEWMGDIYPGSGSTTNYNEKFKSRVTMTRDTSTSTVYMELSSLRSEDTAVYYCARETTVGGAYAMDYWGQGTLVTVSS
VL: EIVLTQSPATLSLSPGERATLSCRASQSINNNLHWYQQKPGQAPRLLIKYVSQSISGIPARFSGSGSGTDFTLTISSLEPEDFAVYYCQQTNSWPLTFGGGTKLEIK
In general, Kd refers to a measure of binding affinity in units of concentration. As a reminder, the koff is a measure of how fast the partners let go of each other. In general, kon refers to the rate constant with which the complex forms. As usually defined, the EC50 is the concentration needed to bring the measured effect to its halfway point. In test [1], B1 showed an equilibrium dissociation constant (Kd) of 0.143 nM, a koff of 3.16e-05 s⁻¹ and a kon of 221000 M⁻¹ s⁻¹. Moreover, in test [2], the 50% effective concentration (EC50) was 1.12 nM and the “Top MFI” value was determined as 1570 MFI. Further, the binding result in test [3] is on record as “no binding (tested: 100 nM)”.

Values taken from patent US20240239878A1 (SHANGHAI QILU PHARMACEUTICAL RESEARCH AND DEVELOPMENT CENTRE, published 2024).
